Reference: the supplement of paper PMC9170038

What was measured:
MS2 coat protein [1] = assay: apparent KD of MS2 coat protein, switch OFF state (with FMN for OFF switches, without FMN for ON switches); designed switch direction (-1 OFF switch, 1 ON switch): -1; higher = weaker reporter binding; conditions: FMN input: 0 or 200 uM; Eterna round: R93 (includes R88 designs)
Summary of the method: (§1)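 The designed RNA switches were transcribed on-chip from Illumina sequencing clusters. In 100 mM Tris-HCl pH 7.5, 80 mM KCl and 4 mM MgCl2, without or with constant ligand, they were titrated with SNAP-549-labelled MS2 coat protein from 0.7 or 1.5 nM to 3 µM in twofold steps. Apparent KD is the per-design median of normalised cluster binding-curve fits.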

MS2 coat protein [2] = assay: apparent KD of MS2 coat protein, switch ON state; designed switch direction (-1 OFF switch, 1 ON switch): -1; higher = weaker reporter binding; conditions: FMN input: 0 or 200 uM; Eterna round: R93 (includes R88 designs)
Summary of the method: as §1

Sequence | apparent KD of MS2 coat protein (MS2 coat protein [1]) [nM] | apparent KD of MS2 coat protein (MS2 coat protein [2]) [nM]
CUCUUGUCAGGAUAUCGAUGAAUAAUAAAACAGAGGAACAUUGAGAAGGGACAUGAGGAUCACCCAUGUAAAAC [May 83] | 48.9 | 73.1
AAAAAACAUGAGGAUCACCCAUGUGAGGAUAUGAAAAAACAAAAAAAAAAGUAAACAAUCAGAAGGCACAACAA [JR_Exc--1_Sub1211] | 24.4 | 27.3
AGUAUGCGAGGAUAUACAUGAGGAUCACCCAUGUGAGAGAUAAAAGUGAGAAAGACAUGUAGAAGGCGCGUACA [JL Lego Mod 24] | 27 | 38.9
AAAAUGUGAGGAUAUGUACGAAAAAAUAAAAAAAUAAAAGUACAGAAGGCACAUGAGGAUCACCCAUGUGUGGG [EX4 400: Minimal 13] | 76.1 | 113
GGAAAACAUGAGGAUCACCCAUGUGAGGAUAUCGAUGUCCAAAAAAAAGUGCGGGACUCGAGAAGGCACUUGGC [salish99-ex1-33] | 34.3 | 51.5
AAAAAGUGAGGAUAUUCGGAUAGGAAAACGAAAACCUAUCCGAAGAAGGCACAUGAGGAUCACCCAUGUGGGAA [67% Ecls-II - Early G + late G segment 3] | 75.9 | 52.6
UCCGGACAUGAGGAUCACCCAUGUGAGGAUAUAUAAAGUGGGACUGGAAACAGGCCCAAUAGAAGGCACAUGAC [Atatesin] | 21.9 | 22.6
AAAAGGGCAGGAUAUGCGUACUCACGGGAAAACUGAAUGGUACAUGAGGAUCACCCAUGUAGAAGGGCUAAAAA [Dora Explored 19 - Jieux - Exclusion 2] | 37.8 | 54.6
AAAAACUGAGGAUAUACAUGAGGAUCACCCAUGUGAAAGAAAGAAAAAAGAAAAGAAAGUAGAAGGCAGAAAAA [Ruby 76] | 29.5 | 34
CUUAUGUGAGGAUAUGUACAGAAAAAACUGGGUGUAACUGUACAGAAGGCACAUGAGGAUCACCCAUGUGCAAA [EX4 388: S S Pseudoknot 13] | 56.8 | 70.2
AAAAGUGGAGGAUAUACAUGAGGAUCACCCAUGUGUAAAAAUAAAAACACAAAAGAAAGUAGAAGGCCACAAAA [Ex 3 May 9] | 55.2 | 24.1
GAAGUGUUAGGAUAUCGAUGAAUAAUAAAACAAAGGAACAUUGAGAAGGAACAUGAGGAUCACCCAUGUAUAAC [May 81] | 25.2 | 27.7
UAAAGACAUGAGGAUCACCCAUGUGAGGAUAUCGGAGGUGACGGAGCAUCGAGUUCGGCGAGAAGGCGCAGGAA [JR_Exc001_Sub409] | 53.4 | 67.2
CUCAUGUCAGGAUAUGUAGCAUGAUACGAAAGUAUCAUGCUACAGAAGGGACAUGAGGAUCACCCAUGUGAUCA [Ex4: 941] | 25.5 | 31.7
AAAAAAUGAGGAUAUACAUGAGGAUCACCCAUGUAAAAGGUCAGGGUGGCGGAGGACGGUAGAAGGCAUAAAAA [Excls3-X] | 18.2 | 21.6
UAAAGACAUGAGGAUCACCCAUGUGAGGAUAUGUGAGACAACAGAACAUCAAGUACAAGCAGAAGGCACAGAAA [JR_Exc001_Sub019] | 62.7 | 51.8
AAGAAGUCAGGAUAUCGAAGACAGACGAAAAGUCUGUCAAACGAGAAGGGACAUGAGGAUCACCCAUGUAAGAA [What have we learned so far? 64% 1] | 60.4 | 44.9
AACUAGCUAGGAUAUACAUGAGGAUCACCCAUGUAAAAAAAAAAAAAAAGAUAUAUAUGUAGAAGGAGCUAGUA [Mod of Brourd] | 41.3 | 30.5
AGAAAGCUAGGAUAUACCUGGAGGGUUCGAAAUGAAAUAAAACAUGAGGAUCACCCAUGUAGAAGGAGCCCGAG [Veislela] | 28 | 42.6
AAAAAGGGAGGAUAUACAACACAGACAGAACAACAAACACAACAUGAGGAUCACCCAUGUAGAAGGCCCAAAAA [Default title] | 35.4 | 28.2
